One block for each binder: values may come before it.
Legend:
DR5 = molecular target: T1, DR5 (UniProt O14763 56-182, limits assumed); assay: ELISA
T1 construct: also called TRAIL-R2

[1] = molecular target: T2, Recombinant human rTRAIL receptor 1 (DR4), extracellular part, amino acids 25-239 (human, UniProt O00220 25-239); assay: ELISA, DR4 coated at 50 ng/well, IgG1 detected with anti-human Fc-HRP
T2 construct: also called rDR4; recombinant DR4
T2 sequence: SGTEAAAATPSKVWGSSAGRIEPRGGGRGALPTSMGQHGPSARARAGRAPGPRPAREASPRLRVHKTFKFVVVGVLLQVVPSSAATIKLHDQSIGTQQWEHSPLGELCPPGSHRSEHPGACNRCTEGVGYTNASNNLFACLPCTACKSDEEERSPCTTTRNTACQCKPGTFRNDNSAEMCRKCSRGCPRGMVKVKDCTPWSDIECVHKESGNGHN
Procedure: To testing binding of recombinant antibodies to DR4 in vitro, DR4 protein was coated onto half-area ELISA plate at 50 ng/well. After blocking with MPBS, different dilutions of antibodies were incubated with coated wells. For detection of binding antibodies, secondary antibody goat anti-Flag tag-HRP and goat anti-human Fc-HRP (both used at 1:1000) were used to detect Fab or IgG. The ELISA signal was developed with substrate ABTS, and read under wavelength 405 nm. […] The mixture was then added to wells for ELISA.

- binding result (DR5): no binding (tested: 1000 nM)
- EC50 [1]: ~10 nM
B1: m922 IgG1 (antibody, V domains shown)
VH: QVQLQQSGPGLVKPSQTLSLTCAISGDSVSSNSAAWNWIRQSPSRGLEWLGRTYYRSKWYNDYAVSVKSRITINPDTSKNQFSLQLNSVTPEDTAVYYCARETVAVDAFDIWGQGTMVTVSS
VL: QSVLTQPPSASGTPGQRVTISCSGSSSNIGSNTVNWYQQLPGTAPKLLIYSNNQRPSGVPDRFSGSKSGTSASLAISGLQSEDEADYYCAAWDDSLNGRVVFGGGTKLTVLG
notes: also called IgG m922; DR4 m922 IgG

- binding result (DR5): no binding (tested: 1000 nM)
- EC50 [1]: ~10 nM
B2: m921 IgG1 (antibody, V domains shown)
VH: QVQLQQSGPGLVKPSQTLSLTCAISGDSVSSNSAAWNWIRQSPSRGLEWLGRTYYRSKWYNDYAVSVKGRITINPDTSKNQFSLQLNSVTPEDTAVYYCARDLGVAAADSYYYYGMDVWGQGTTVTVSS
VL: QPVLTQPPSASATPGQRVTISCSGSSSNIGSNTLDWFQQLPGTAPKLLIFDTNRRPSGVPDRFSGSKSGTSASLAISGLQAEDEAVYFCATWDNSLNGAVFGGGTKLSVPR
notes: also called IgG m921; DR4 IgG m921
